According to PMC7878818, “Structural mechanism of bivalent histone H3K4me3K9me3 recognition by the Spindlin1/C11orf84 complex in rRNA transcription activation” (Nature Communications, 2021):
Values belong to the binder of their own block, whether it stands above or below them. Square brackets hold non-standard residues; d marks the D form. Ends that are not written are not given here. Me3 = trimethyl group on lysine (trimethyl-lysine); Arg(Me2a) = CN(C)C(=N)NCCC[C@H](N)C(=O)O; Lys(Me3) = C[N+](C)(C)CCCC[C@H](N)C(=O)O

Key:
Settings in all cases: both partners purified
Spindlin1 (aa: 50–262) [1] = biological target: T1, Spindlin1 (aa: 50–262) (human, UniProt Q9Y657 50-262); test: crystal structure; 1:1.5 molar ratio of Spindlin1 (aa 50-262)/C11orf84 (aa 253-295) binary complex and H3K4me3K9me3 (A1-G12) peptide; hanging drop, 291 K; 1.60 Å
T1 construct: The methods describe only co-expression plasmids with C11orf84; also called Spindlin1 alone

[2] = biological target: T2, Spindlin1 (aa: 50–262)/C11orf84 (aa: 253–295) binary complex (human, UniProt Q9Y657 50-262; Q9BUA3 253-295); test: as above
T2 construct: This binary complex was mixed with the H3K4me3K9me3 (A1-G12) peptide for crystallisation; also called Spindlin1/C11orf84

Spindlin1 (aa: 50-262) = biological target: T3, Spindlin1 (aa: 50-262) (human); test: ITC; 25 °C, MicroCal ITC200; 20 mM HEPES pH 7.5, 150 mM NaCl; 0.8 mM H3 peptide injected into 50 μM protein or complex in the sample cell
T3 construct: for the ITC of 'Spindlin1' alone the limits are not restated

Spindlin1 (aa: 50–262) [3] = biological target: T1, Spindlin1 (aa: 50–262); test: ITC; 25 °C, MicroCal ITC200; 20 mM HEPES pH 7.5, 150 mM NaCl; 50 μM Spindlin1 or Spindlin1/C11orf84 complex in the cell, 0.8 mM peptide injected
Spindlin1 (aa: 50–262) [4] = biological target: T1, Spindlin1 (aa: 50–262); test: anion-exchange chromatography; co-expressed Spindlin1 (aa 50-262) and C11orf84 (aa 219-305); SDS-PAGE of the peak fraction
Spindlin4 = biological target: T4, Spindlin4 (human); test: ITC; 25 °C, MicroCal ITC200; 20 mM HEPES pH 7.5, 150 mM NaCl; 0.8 mM H3 peptide injected into 50 μM protein or complex in the sample cell
T4 construct: human Spindlin4; Construct, host and purification of the Spindlin4 used for ITC are told nowhere
T4 chain: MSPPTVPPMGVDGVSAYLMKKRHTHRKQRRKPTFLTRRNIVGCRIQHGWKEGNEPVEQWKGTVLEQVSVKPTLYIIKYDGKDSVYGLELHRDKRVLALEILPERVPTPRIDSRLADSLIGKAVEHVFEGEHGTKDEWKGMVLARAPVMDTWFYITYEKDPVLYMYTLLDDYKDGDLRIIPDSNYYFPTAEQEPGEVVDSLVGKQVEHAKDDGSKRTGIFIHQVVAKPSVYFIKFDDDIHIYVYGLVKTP

T3 sequence (chain, as listed by the source): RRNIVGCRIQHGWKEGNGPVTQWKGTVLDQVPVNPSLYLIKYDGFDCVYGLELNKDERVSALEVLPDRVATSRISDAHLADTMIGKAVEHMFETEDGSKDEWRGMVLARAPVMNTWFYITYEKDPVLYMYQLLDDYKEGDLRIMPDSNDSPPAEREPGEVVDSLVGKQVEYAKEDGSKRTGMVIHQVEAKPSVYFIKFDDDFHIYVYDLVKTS
T1 sequence (Q9Y657 50-262): as the sequence (chain, as listed by the source) above
T2 sequence (Q9Y657 50-262, one chain of several): as the sequence (chain, as listed by the source) above

B1: H3K4me3K9me3 (A1-G12) peptide (peptide, UniProt P68431 2-13, looked up)
peptide: ARTK(Me3)QTARK(Me3)STG
notes: histone H3 residues A1-G12; This is the peptide of the crystal structure; also called H3K4me3K9me3 peptide; methyl histone peptide
- binding result (Spindlin1 (aa: 50–262) [1]): binds
- binding result [2]: binds

B2: H3K4me3R8me2a peptide, H3 (1-12) (peptide)
peptide: ARTK(Me3)QTAR(asymmetric Me2)KSTG
notes: histone H3 N-terminal tail, residues 1-12
- Kd (Spindlin1 (aa: 50-262)): 170 nM
- stoichiometry N (Spindlin1 (aa: 50-262)): 1.02

Binder: ART[Lys(Me3)]QTA[Arg(Me2a)]KSTG [H3K4me3R8me2a peptide]
- fold by which the affinity for H3K4me3K9me3 is higher than for this peptide (Spindlin1 (aa: 50–262) [3]): ~4 fold

B5: H3K4me3K9me3 peptide, H3 (1-12) (peptide)
peptide: ARTK(Me3)QTARK(Me3)STG
notes: histone H3 N-terminal tail, residues 1-12; also called H3K4me3K9me3 (A1-G12) peptide
- Kd (Spindlin4): 41 ± 5 nM
- stoichiometry N (Spindlin1 (aa: 50-262)): 1.04

Continued, values first:

- binding result (Spindlin1 (aa: 50–262) [4]): binds
B3: C11orf84 (aa: 219–305) (domain or fragment, human, UniProt Q9BUA3 219-305, looked up)
chain: WKEPPGEEPVRKKRGRPMTKNLDPDPEPPSPDSPTETFAAPAEVRHFTDGSFPAGFVLQLFSHTQLRGPDSKDSPKDREVAEGGLPR

- binding result (Spindlin1 (aa: 50–262) [1]): binds
B4: C11orf84 (aa: 253–295) (domain or fragment, human, UniProt Q9BUA3 253-295, looked up)
chain: TETFAAPAEVRHFTDGSFPAGFVLQLFSHTQLRGPDSKDSPKD
notes: T255-Q283 defined in the electron density; The cloning of this fragment is not described; It is named only as part of the binary complex used for crystallisation; also called C11orf84 fragment; C11orf84 segment
